Measured values taken from patent US20080274112A1, “Nogo Receptor Antagonists” (priority 2003, published 2008).

Legend:
[1] = system: mouse spinal cord dorsal over-hemisection; assay: Dorsal over-hemisection in gfap::sNogoR310 transgenic mice; format: in vivo
Text: (§1) The Basso-Beattie-Bresnahan (BBB) locomotor rating scale (Basso et al., 1996, Neurotrauma 13, 343-359), the inclined plane test and the inclined grid walking test (Li and Strittmatter, 2003, J Neurosci. 2003, 23, 4219-27) were monitored in rats and mice after injury. For the inclined plane test, we measured the maximal angle to which a 50 cm×60 cm board could be angled for 5 sec without the mouse sliding off. For inclined grid walking, the mice were trained to climb a wire grid (35 cm long with 2.54 cm squares) at a slope of 45 degrees. The number of instances in which the hindpaw dropped below the grid plane was scored for each excursion from bottom to top. For the rat behavioral testing, BBB locomotor scale, grid walking and footprint analysis were performed. For grid walking, the rats were trained to walk on a wire grid (70 cm long with 2.54 cm squares), and the number of instances in which the hindpaw dropped below the grid plane was counted. For footprint analysis, the walking patterns of rat hindpaws were recorded with ink during a continuous locomotion across a 90 cm runway, and stride length on each side and stride width were calculated (Metz et al., 2000, Brain Res., 883, 165-177). All of these behavioral tests were performed by at least two individuals. Throughout the surgery, behavioral testing and histologic analysis, researchers were blind to the identity of the compound in the minipump.
We cloned the mouse sNogoR310 cDNA (corresponding to amino acids 1-310 of the Nogo receptor-1) into the NotI site of the C-3123 vector. In this vector, sNogoR310 expression is under the control of the glial fibrillary acidic protein (gfap) gene regulatory elements, which allow high level expression with enhanced secretion from reactive astrocytes at site of injury. We digested the resulting vector sequentially with AatII and SfiI and isolated the gfap::sNogoR310 construct on a 3.4 kb fragment. We microinjected this fragment into embryos to generate transgenic mice. We verified by PCR that the transgene had integrated and identified five founder lines. We crossed heterozygous males of the two founder lines with the highest expression levels to female C57BL/6J mice. We confirmed that the GFAP-positive cells express and secrete sNogoR310 in heterozygous transgenic mice by Western blot analysis using antibody raised against Nogo receptor-1.
We deeply anesthetized adult female heterozygous transgenic or littermate WT mice (10-16 weeks of age) and performed a complete laminectomy, fully exposing the dorsal part of spinal cord at T6 and T7 levels. We performed a dorsal over-hemisection at T6 with a 30-gauge needle and a pair of microscissors to completely sever the dorsal and dorsolateral corticospinal tracts (CSTs). We passed a marked needle across the dorsal part of the spinal cord several times to assure that the lesion was at a depth of 1.0 mm. We sutured the muscle layers over the laminectomies and closed the skin on the back with surgical staples. To trace the corticospinal tracts, we made a burr hole overlying cerebral cortex on the right side into the skull 14 days after spinal cord injury. We applied the tracer BDA (MW 10,000, 10% in PBS) (Molecular Probes, Eugene, Oreg.) to 4 injection sites at a depth of 0.7 mm from the cortical surface. Four weeks after injury, the mice were perfused transcardially with PBS, followed by 4% paraformaldehyde.
We investigated the integrity of descending corticospinal tracts (CST) by injecting anterograde tracer biotin dextran amine (BDA) into the right motor cortex as described in Li and Strittmatter, 2003, J. Neurosci., 23, 4219-27. In littermate WT mice, the prominent dorsal CST (dCST) is tightly bundled rostral to the lesion, and a few dorsolateral CST fibers are visible ipsilaterally. A small number of BDA-labeled short collateral sprouts project into gray matter, particularly in the ventral cord, but the sprouting is largely confined to the side of the cord contralateral to the tracer injection. […]

Nogo receptor-1 = assay: Blocking of ligand binding to Nogo receptor-1 by soluble receptors
chick neurons = assay: Neurite outgrowth assay using chick neurons; format: cell-based
DRG neurons = assay: Neurite outgrowth assay, myelin mixed with test protein (Example 10); format: cell-based; conditions: P3-4 rat DRG; spotted mixed with CNS myelin
Experimental: Lab-Tek® culture slides (4 wells) were coated with 0.1 mg/ml poly-D-lysine (Sigma®). CNS myelin alone or mixed with sNogoR310, sNogoR310-Fc fusion protein, mAb 5B10 or control PBS were separately spotted as 3 μl drops. Fluorescent microspheres (Polysciences) were added to the myelin/PBS to allow later identification of the drops (Grandpre et al, Nature 403, 2000). Lab-Tek® slides were then rinsed and coated with 10 μg/ml laminin (Gibco™).
Dorsal root ganglions (DRG's) from P3-4 Sprague Dawley rat pups were dissociated with 1 mg/ml collagenase type 1 (Worthington), triturated with fire-polished Pasteur pipettes pre-plated to enrich in neuronal cells and finally plated at 23,000 cells/well on the pre-coated Labtek culture slides. The culture medium was F12 containing 5% heat inactivated donor horse serum, 5% heat inactivated fetal bovine serum and 50 ng/ml MNGF and incubated at 37° C. and 5% CO2 for 6 hours.
Slides were fixed for 20 minutes with 4% paraformaldehyde containing 20% sucrose and stained for the neuronal marker anti beta-III-tubulin (Covance TUJ1) diluted 1:500. As secondary antibody anti-mouse Alexa Fluor® 594 (Molecular Probes) was diluted 1:300 and slides were coverslipped with Gel/Mount™ (Biømeda™). 5× digital images were acquired with OpenLab™ software and analyzed by using the MetaMorph® software for quantification of neurite outgrowth.

Nogo-66, MAG and myelin = assay: Blocking of Nogo-66, MAG and myelin action in vitro
[2] = system: rat spinal cord dorsal hemisection; assay: Intrathecal sNogoR310-Fc in rats with mid-thoracic dorsal hemisection; format: in vivo
Text: as §1
We isolated spinal cord 4 mm rostral to and 4 mm caudal to the lesion site (8 mm long in total) from transgenic mice and embedded it in a glutaraldehyde-polymerized albumin matrix, and cut parasagittally on a vibratome (30 μm thick). We collected transverse sections (50 μm) from the spinal cord 5-7 mm rostral to and 5-7 mm caudal, to the injury site. For sNogoR310-Fc injection experiments in rats, the spinal cord extending from 10 mm rostral to 10 mm caudal from the lesion site was cut parasaggitally (50 μm) on a vibrating microtome. Transverse sections were collected from the spinal cord 11-16 mm rostral to and 11-16 mm caudal to the injury site. We incubated the sections with avidin-biotin-peroxidase complex and visualized the BDA tracer by nickel-enhanced diaminobenzidine HRP reaction (Grandpre, 2002, Nature, 417, 547-551). We processed some sections for serotonin immunohistochemistry (anti-5-HT antibody) by indirect immunofluoresence. To visualize the lesion area, we double-stained some sections with antibodies directed against GFAP (Sigma®, St. Louis, Mo.). We mounted, dehydrated and covered the sections with mounting medium.
We fused the ligand binding domain (27-310) of rat Nogo receptor-1 to the rat IgG1 Fc domain to promote stability and purification. We purified protein from stably transfected CHO cells. […]

blocking of binding of NogoA, NogoB, NogoC, MAG and OM-gp to Nogo receptor-1 (Nogo receptor-1)	Molecule	grid climbing ([1]; 2-6 weeks post-injury)	BDA-labeled regenerating fibers in the rostral-caudal axis ([1]; any level 1-4 mm caudal to the lesion, each transgenic mouse)	sustainable inclined plane angle ([1]; days 7-28 after injury vs control)	BBB scores ([1]; lines Tg08 and Tg01 vs control, 7-28 days)	fibers on the opposite side of the spinal cord (ipsilateral to tracer injection) ([1]; rostral to dorsal hemisection)	sprouting density of collateral sprouts (micro densitometric measurement) ([1]; rostral to lesion, transgenic vs WT)	CST sprouting ([1]; secreted in transgenic mice)	serotonin fibers in ventral horn of caudal spinal cord ([1]; transgenic vs WT)	protection in similar assay using chick neurons (chick neurons)	protection from myelin-mediated inhibition of neurite outgrowth (DRG neurons)	blocking of Nogo-66, MAG and myelin action (Nogo-66, MAG and myelin)	animals with consistent forelimb-hindlimb coordination and parallel paw position ([2]; 4 weeks after injury)	total collateral length of each sprout versus NEP 1-40-treated animals ([2]; distal spinal cord)	serotonin fibers versus control group ([2]; sections 11-15 mm below the lesion)	rubrospinal tract fibers distal to SCI ([2]; transverse sections 11-15 mm distal)
block the binding	sNogoR310: soluble Nogo receptor-1 polypeptide, residues 26-310 (human) or 27-310 (rat); mouse form expressed in transgenic mice (protein) CPGACVCYNEPKVTTSRPQQGLQAVPAGIPASSQRIFLHGNRISYVPAASFQSCRNLTILWLHSNALAGIDAAAFTGLTLLEQLDLSDNAQLRVVDPTTFRGLGHLHTLHLDRCGLQELGPGLFRGLAALQYLYLQDNNLQALPDNTFRDLGNLTHLFLHGNRIPSVPEHAFRGLHSLDRLLLHQNHVARVHPHAFRDLGRLMTLYLFANNLSMLPAEVLVPLRSLQYLRLNDNPWVCDCRARPLWAWLQKFRGSSSGVPSNLPQRLAGRDLKRLATSDLEGCA	progressive improvement	5-15	significantly greater	significantly higher	4-12 sprouts per transverse section	approximately a tenfold increase	induces CST sprouting	much greater number	protective	protected					
	sNogoR310-Fc: fusion protein comprising amino acids 26-310 of rat Nogo receptor-1 and a rat Fc fragment (protein, left off: a dimerising Fc or GST, fusion protein comprising amino acids 26-310 of rat Nogo receptor-1 and a rat Fc fragment) PCPGACVCYNEPKVTTSRPQQGLQAVPAGIPASSQRIFLHGNRISYVPAASFQSCRNLTILWLHSNALAGIDAAAFTGLTLLEQLDLSDNAQLRVVDPTTFRGLGHLHTLHLDRCGLQELGPGLFRGLAALQYLYLQDNNLQALPDNTFRDLGNLTHLFLHGNRIPSVPEHAFRGLHSLDRLLLHQNHVARVHPHAFRDLGRLMTLYLFANNLSMLPAEVLVPLRSLQYLRLNDNPWVCDCRARPLWAWLQKFRGSSSGVPSNLPQRLAGRDLKRLATSDLEGCA										protected	blocks	all 9	twice as great	twice as numerous	many BDA-labeled RST fibers
